{"source": "patent US20130129763A1", "about": "(ARNE FORSGREN, published 2013)", "binders": {"B1": {"name": "recombinant UspA1^50-770 (M. catarrhalis Bc5) (other)", "chain": "KVGKATNKISGGDNNTANGTYLTIGGGDYNKTKGRYSTIGGGLFNEATNEYSTIGSGGYNKAKGRYSTIGGGGYNEATNQYSTIGGGDNNTAKGRYSTIGGGGYNEATIENSTVGGGGYNQAKGRNSTVAGGYNNEATGTDSTIAGGRKNQATGKGSFAAGIDNKANADNAVALGNKNTIEGENSVAIGSNNTVKKGQQNVFILGSNTDTTNAQNGSVLLGHNTAGKAATIVNSAEVGGLSLTGFAGASKTGNGTVSVGKKGKERQIVHVGAGEISDTSTDAVNGSQLHVLATVVAQNKADIKDLDDEVGLLGEEINSLEGEIFNNQDAIAKNQADIKTLESNVEEGLLDLSGRLLDQKADIDNNINNIYELAQQQDQHSSDIKTLKNNVEEGLLDLSGRLIDQKADLTKDIKALESNVEEGLLDLSGRLIDQKADIAKNQADIAQNQTDIQDLAAYNELQDAYAKQQTEAIDALNKASSANTDRIATAELGIAENKKDAQIAKAQANENKDGIAKNQADIQLHDKKITNLGILHSMVARAVGNNTQGVATNKADIAKNQADIANNIKNIYELAQQQDQHSSDIKTLAKVSAANTDRIAKNKAEADASFETLTKNQNTLIEQGEALVEQNKAINQELEGFAAHADVQDKQILQNQADITTNKTAIEQNINRTVANGFEIEKNKAGIATNKQELILQNDRLNRINETNNHQDQKIDQLGYAL", "notes": "also called UspA1^56-770 [sic]; UspA1^50-7\""}}, "key": {"[1]": {"biological_target": "T1, methylamine-treated C3 (C3met) (human, UniProt P01024 23-667; P01024 672-1663)", "T1 construct": "mature; also called C3b-like molecule; [125I]-C3met", "T1 sequence (P01024 23-667 limits assumed, chain 1 of 2)": "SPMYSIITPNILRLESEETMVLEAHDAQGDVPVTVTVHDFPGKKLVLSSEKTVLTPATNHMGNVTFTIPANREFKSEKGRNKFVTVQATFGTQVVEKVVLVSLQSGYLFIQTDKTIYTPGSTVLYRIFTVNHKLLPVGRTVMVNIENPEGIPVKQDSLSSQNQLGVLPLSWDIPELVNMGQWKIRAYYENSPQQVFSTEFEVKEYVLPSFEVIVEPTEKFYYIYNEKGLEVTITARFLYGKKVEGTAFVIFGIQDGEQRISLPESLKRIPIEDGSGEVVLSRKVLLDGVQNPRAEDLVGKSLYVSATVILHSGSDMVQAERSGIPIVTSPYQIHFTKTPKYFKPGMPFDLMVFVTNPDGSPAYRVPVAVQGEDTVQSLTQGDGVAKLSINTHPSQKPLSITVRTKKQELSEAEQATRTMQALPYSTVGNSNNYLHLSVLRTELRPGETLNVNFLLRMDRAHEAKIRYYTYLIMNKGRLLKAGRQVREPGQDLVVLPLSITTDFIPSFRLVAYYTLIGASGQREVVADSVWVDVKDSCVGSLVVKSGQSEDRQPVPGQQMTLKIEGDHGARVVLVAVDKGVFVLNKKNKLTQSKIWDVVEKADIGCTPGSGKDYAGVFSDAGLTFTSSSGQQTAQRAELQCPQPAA", "T1 sequence (P01024 672-1663 limits assumed, chain 2 of 2)": "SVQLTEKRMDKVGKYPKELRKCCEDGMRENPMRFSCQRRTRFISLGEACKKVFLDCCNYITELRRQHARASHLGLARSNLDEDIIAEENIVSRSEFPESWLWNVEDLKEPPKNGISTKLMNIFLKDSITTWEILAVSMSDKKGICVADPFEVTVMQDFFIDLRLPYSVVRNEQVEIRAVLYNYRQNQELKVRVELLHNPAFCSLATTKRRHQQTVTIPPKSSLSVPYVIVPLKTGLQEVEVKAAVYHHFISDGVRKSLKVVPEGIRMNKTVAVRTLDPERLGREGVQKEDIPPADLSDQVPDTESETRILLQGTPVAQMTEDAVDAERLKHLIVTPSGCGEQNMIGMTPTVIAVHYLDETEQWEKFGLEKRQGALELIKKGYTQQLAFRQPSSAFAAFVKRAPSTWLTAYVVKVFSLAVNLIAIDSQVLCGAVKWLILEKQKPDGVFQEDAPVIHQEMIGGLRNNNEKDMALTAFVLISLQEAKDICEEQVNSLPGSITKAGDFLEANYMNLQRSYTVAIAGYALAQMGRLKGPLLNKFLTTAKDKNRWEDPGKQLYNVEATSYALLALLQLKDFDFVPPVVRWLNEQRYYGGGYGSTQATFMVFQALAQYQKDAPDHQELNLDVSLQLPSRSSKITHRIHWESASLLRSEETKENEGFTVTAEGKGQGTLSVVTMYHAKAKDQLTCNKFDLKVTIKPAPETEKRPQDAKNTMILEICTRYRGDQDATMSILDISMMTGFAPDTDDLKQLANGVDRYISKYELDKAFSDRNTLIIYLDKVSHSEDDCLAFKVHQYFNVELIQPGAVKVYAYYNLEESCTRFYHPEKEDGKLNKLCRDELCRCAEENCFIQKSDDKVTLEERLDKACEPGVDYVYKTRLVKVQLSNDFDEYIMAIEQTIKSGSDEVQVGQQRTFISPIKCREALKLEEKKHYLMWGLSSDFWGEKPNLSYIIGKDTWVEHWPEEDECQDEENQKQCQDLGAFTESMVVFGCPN", "assay": "SPR (Biacore 2000), UspA protein amine-coupled on CM5 chip, C3met injected, steady state affinity model; UspA1^50-770 on the chip"}, "[2]": {"biological_target": "T2, Engelbreth-Holm-Swarm mouse sarcoma laminin (Sigma) (mouse, UniProt P19137 25-3083; P02469 22-1786; P02468 34-1607)", "T2 construct": "also called soluble laminin", "assay": "ELISA: 40 nM UspA1 50-770 coated, soluble laminin titrated in three-fold steps 0.03-60 µg/ml, rabbit anti-laminin pAb + HRP anti-rabbit pAb"}}}
{"binder": "B1", "values": [{"measurement": "Kd", "setting": "[1]", "value": 14, "unit": "µM"}, {"measurement": "binding result", "setting": "[2]", "value": "binds"}]}
